Laboratory results: patent US20250282820A1, “PEPTIDE COMPLEX HAVING TRKB BINDING ACTIVITY” (PEPTIDREAM INC, priority 2022, published 2025)
*1 amine or outer side, *2 acyl side, *3 side chain or, on linkers, in order; H or OH if unused. Where a SMILES comes first, the peptide text is derived from it. Bridges are numbered along the chain shown (N, C = ends). Roman numbers before positions name the chains, in order. Where no end group is shown, it is not given here. [ ]: non-standard residue; d: D form. ξ: configuration not given here. X1 = O=C(OCCOCCOCCOCCOCCOCCOCCOCCOCCOCCOCCOCCOC(=O)[*:2])[*:1]; 3Pal = N[C@@H](Cc1cccnc1)C(=O)O; ξK = NCCCCC(N)C(=O)O; ξP = O=C(O)C1CCCN1; ξC = NC(CS)C(=O)O

What was measured:
[1] = molecular target: T1, TrkB (CellSensor TrkB-NFAT-bla CHO-K1 Cell) (Homo sapiens, UniProt Q16620); experiment: pERK1/2 AlphaLISA assay (phosphorylation of ERK) for TrkB agonist activity; assay type: cell-based; details: class = peptide concentration giving 50% or more activity; BDNF maximum signal = 100%, no stimulation = 0%; 15 minutes of stimulation
T1 construct: host or cells: CHO-K1 (CellSensor TrkB-NFAT-bla CHO-K1)
T1 sequence (Q16620 32-822): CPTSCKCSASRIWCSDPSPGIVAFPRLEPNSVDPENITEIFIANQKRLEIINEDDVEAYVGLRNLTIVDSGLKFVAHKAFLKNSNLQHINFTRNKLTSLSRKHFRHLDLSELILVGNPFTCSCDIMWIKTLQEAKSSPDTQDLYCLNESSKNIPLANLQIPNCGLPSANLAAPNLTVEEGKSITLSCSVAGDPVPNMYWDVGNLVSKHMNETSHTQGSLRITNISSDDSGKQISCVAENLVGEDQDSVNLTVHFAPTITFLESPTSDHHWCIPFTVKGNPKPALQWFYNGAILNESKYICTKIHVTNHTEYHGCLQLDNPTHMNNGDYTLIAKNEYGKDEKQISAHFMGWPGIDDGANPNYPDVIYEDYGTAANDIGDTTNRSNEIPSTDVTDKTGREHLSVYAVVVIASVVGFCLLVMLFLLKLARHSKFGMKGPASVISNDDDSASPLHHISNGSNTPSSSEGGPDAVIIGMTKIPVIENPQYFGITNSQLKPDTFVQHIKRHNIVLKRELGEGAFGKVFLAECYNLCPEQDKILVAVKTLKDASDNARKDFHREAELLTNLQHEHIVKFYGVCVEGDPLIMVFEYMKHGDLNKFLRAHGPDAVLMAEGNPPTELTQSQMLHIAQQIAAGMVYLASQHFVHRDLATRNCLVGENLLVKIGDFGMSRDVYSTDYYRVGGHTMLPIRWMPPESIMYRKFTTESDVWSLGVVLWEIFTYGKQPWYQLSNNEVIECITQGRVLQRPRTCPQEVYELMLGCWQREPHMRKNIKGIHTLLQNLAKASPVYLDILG
Summary of the method: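 TrkB-NFAT-bla CHO-K1 cells were starved 4 h in 0.1% BSA medium and then stimulated 15 min with peptide or BDNF; p-ERK1/2 (Thr202/Tyr204) in the lysate was read by AlphaLISA SureFire. Activity % was scaled to the BDNF maximum (100%) and no stimulation (0%); A = ≥50% at 1 nM, B = ≥50% at 10 nM; curves were 8 points, 4-fold dilutions from 100 nM.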

[2] = molecular target: T1, TrkB (CellSensor TrkB-NFAT-bla CHO-K1 Cell); experiment: NFAT transcriptional reporter assay for TrkB agonist activity; assay type: cell-based; details: class = peptide concentration giving 50% or more activity; BDNF maximum signal = 100%, no stimulation = 0%; 5 hours culture
Summary of the method: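 CHO-K1 TrkB-NFAT-bla cells, 12,500 per well, treated overnight-seeded with peptide or BDNF for 5 h, then CCF4-AM substrate 2 h in the dark; 460/535 nm emission ratio. Activity scaled to maximal BDNF signal (100%) and unstimulated (0%); grades A/B/C mean ≥50% activity at 1, 10 or 100 nM.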

[3] = molecular target: TrkB (Homo sapiens, UniProt Q16620); experiment: PathHunter eXpress TrkB Functional Assay (phosphorylation of TrkB); assay type: cell-based; details: stimulation for 3 hours
Chain of TrkB (Q16620 32-822): as above
Summary of the method: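 PathHunter TrkB cells, cultured 48 h, were stimulated 3 h with peptide or BDNF, then detection reagent added for 60 min at room temperature; luminescence read. Activity (%) scaled from unstimulated (0%) to maximal BDNF signal (100%); peptides tested over 0.006104-100 nM, 0.032-100 nM or 0.01-10 nM ranges.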

[4] = molecular target: TrkB of the cells of the PathHunter eXpress TrkB Functional Assay kit (DiscoverX) (UniProt Q16620 32-822, limits assumed); experiment: cell-based or functional assay
Chain of TrkB of the cells of the PathHunter eXpress TrkB Functional Assay kit (DiscoverX) (Q16620 32-822 limits assumed): as the sequence (Q16620 32-822) above

[5] = molecular target: Recombinant Human TrkB Fc Chimera Protein (R&D Systems) (human) (UniProt Q16620); experiment: SPR (Biacore T200), TrkB-Fc captured on anti-human IgG (Fc) antibody, peptide complex as analyte, single cycle kinetics
Chain of Recombinant Human TrkB Fc Chimera Protein (R&D Systems) (human) (Q16620 32-430, change not shown): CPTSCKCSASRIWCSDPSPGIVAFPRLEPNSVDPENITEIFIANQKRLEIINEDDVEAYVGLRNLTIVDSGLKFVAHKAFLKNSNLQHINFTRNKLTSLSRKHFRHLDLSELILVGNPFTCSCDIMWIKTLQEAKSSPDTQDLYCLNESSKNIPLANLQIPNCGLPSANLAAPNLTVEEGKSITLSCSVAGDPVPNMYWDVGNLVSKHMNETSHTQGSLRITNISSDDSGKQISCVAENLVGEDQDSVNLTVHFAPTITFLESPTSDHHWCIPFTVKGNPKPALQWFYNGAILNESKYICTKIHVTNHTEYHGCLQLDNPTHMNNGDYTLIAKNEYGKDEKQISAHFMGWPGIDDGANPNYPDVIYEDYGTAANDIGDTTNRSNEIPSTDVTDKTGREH

| PathHunter EC50 [4] | PathHunter Emax (BDNF maximum = 100%) [4] | koff [5] | Molecule | pERK (aLISA) Assay Results [1] | NFAT Assay Results [2] | Emax ([3]; maximum signal induced by BDNF = 100%) | EC50 [3] |
| --- | --- | --- | --- | --- | --- | --- | --- |
| – | – | – | CC(C)[C@@H]1NC(=O)[C@H](Cc2cccnc2)NC(=O)[C@H](CCC(=O)O)NC(=O)[C@H](CO)NC(=O)[C@H](Cc2ccc(O)cc2)NC(=O)[C@H]([C@@H](C)O)NC(=O)[C@@H]2CCCN2C(=O)[C@H](Cc2c[nH]c3ccccc23)NC(=O)[C@H](Cc2cccnc2)NC(=O)[C@H](Cc2ccc(O)cc2)NC(=O)[C@@H]2CCCN2C(=O)[C@H](CCC(=O)O)NC(=O)[C@H](Cc2ccccc2)NC(=O)CSCC(C(=O)NCC(=O)N[C@@H](CCCCNC(=O)OCCOCCOCCOCCOCCOCCOCCOCCOCCOCCOCCOCCOC(=O)NCCCCC(NC(=O)CNC(=O)[C@@H]2CSCC(=O)N[C@@H](Cc3ccccc3)C(=O)N[C@@H](CCC(=O)O)C(=O)N3CCCC3C(=O)N[C@@H](Cc3ccc(O)cc3)C(=O)N[C@@H](Cc3cccnc3)C(=O)N[C@@H](Cc3c[nH]c4ccccc34)C(=O)N3CCCC3C(=O)N[C@@H]([C@@H](C)O)C(=O)N[C@@H](Cc3ccc(O)cc3)C(=O)N[C@@H](CO)C(=O)N[C@@H](CCC(=O)O)C(=O)N[C@@H](Cc3cccnc3)C(=O)N[C@@H](C(C)C)C(=O)N[C@@H](CCC(=O)O)C(=O)N2)C(N)=O)C(N)=O)NC(=O)[C@H](CCC(=O)O)NC1=O (stereo partly shown) [Dimer Structure No. 57] (I: {CH2CO}-FEPY[3Pal]WPTYSE[3Pal]VE[ξC]GK-NH2 / II: {CH2CO}-FE[ξP]Y[3Pal]W[ξP]TYSE[3Pal]VECG[ξK]-NH2; linker I:17-II:17 via X1; thioether I:N-I:15, II:N-II:15) | B (the peptide with 50% or more activity when 10 nM of the peptide was added was evaluated as B) | B (the peptide with 50% or more activity when 10 nM of the peptide was added was evaluated as B) | 89% | 0.8 to 4 nM |
| 0.358 nM | 93% | < 1e-05 s⁻¹ | {CH2CO}-FEPY[3Pal]WPTYSE[3Pal]VECG (thioether N-15; also: homodimer via linker No. 7 (K-cPEG13c-K) at Gly16) [peptide complex, dimer structure No. 56 (peptide sequence No. 17 + linker structure No. 7)] | – | – | – | – |
| 0.421 nM | 102% | < 1e-05 s⁻¹ | {CH2CO}-FSPY[3Pal]WPTYSE[3Pal]VECG (thioether N-15; also: homodimer via linker No. 7 (K-cPEG13c-K) at Gly16) [peptide complex, dimer structure No. 48 (peptide sequence No. 15 + linker structure No. 7)] | – | – | – | – |
